The values that follow come from patent US20170137511A1 (CALYPSO BIOTECH, published 2017).

The target of assay [1] is T1, human IL-15 (preparation not stated) (human, UniProt P40933 49-162, limits assumed).
T1 construct: also called recombinant IL-15; recombinant human IL-15
Description: ELISA; the weaker binders of the comparison. (In general: ELISA stands for enzyme-linked immunosorbent assay.)

For assay [2], the target named is T2, recombinant human IL-15 (R&D systems cat. no. 247-IL) (human, UniProt P40933 49-162). Description: cell-based or functional assay.
In assay [3] the target is T2, recombinant human IL-15 (R&D systems …). Description: cell-based or functional assay. The source holds these as a separate data set.
For assay [4], the target named is T3, recombinant human IL-15 (Prospec cat no. CYT230) (human, UniProt P40933 49-162). Description: ELISA, plate-bound human IL-15; printed as BC50 (half-maximal binding concentration). How it is done: (§1) Maxisorp plates were coated with recombinant human IL-15 (Prospec cat no. CYT230) or Rhesus macaque IL-15 (MyBiosource cat. no. MBS948894) at 100 ng/well in carbonate coating buffer for 2 hours at 37° C. Since published sequences of Rhesus macaque and Cynomolgus monkey IL-15 are identical, such recombinant IL-15 protein was referred to as Macaque Monkey IL-15. Tested human IL-15 recombinant protein has a sequence identical to that provided in SEQ ID NO: 1 but with an additional methionine at the N-terminal position as usually done for expressing recombinant proteins in E. Coli. Tested recombinant Macaque Monkey IL-15 was produced in yeast and has a sequence identical to that provided in SEQ ID NO: 4 but with an additional N-terminal His tag.
(§2) The plate was then blocked with 2% normal goat serum for 30 min at 37° C. and washed 6 times with PBS-Tween (0.05% Tween-20 in PBS, v/v). Test antibodies were added to the plate in triplicate at various dilutions in PBS-Tween and the plate was incubated with gentle rocking at room temperature for 2 hours. The plate was then washed 6 times with PBS-Tween and an appropriate dilution of goat anti-human IgG antibody (Millipore cat. no. AP309P) conjugated to horseradish peroxidase (HRP) was added to the plate and left rocking at room temperature for 1 hour. The plate was then washed 6 times with PBS-Tween and incubated with TMB substrate. The reaction was stopped by the addition of 1M H₂SO₄ and read at 450 nm. Dose response curves of absorbance versus concentration were plotted and analyzed to determine half-maximal binding concentrations (BC₅₀) using the Graphpad Prism software. BC₅₀ values expressed as molarity were extrapolated from concentration in ng/ml using a 150 kDa molecular weight value for all antibodies.

Assay [5] has as its target T4, recombinant Macaque Monkey IL-15 (MyBiosource cat. no. MBS948894) (Rhesus macaque / Cynomolgus monkey, UniProt P40221 49-162 (Chlorocebus aethiops entry)).
T4 construct: Produced in yeast; also called Rhesus macaque IL-15; recombinant monkey IL-15; not shown: additional N-terminal His tag
Description: ELISA, plate-bound Macaque Monkey IL-15; printed as BC50 (half-maximal binding concentration). How it is done: as §1, §2

For assay [6], the target named is T3, recombinant human IL-15 (Prospec cat …). Description: SPR (Biacore 3000), human IL-15 amine-coupled to the chip, antibody injected, 1:1 Langmuir fit. The method, then: Human IL-15 (Prospec cat no. CYT230) was immobilized onto a CMS chip (GE Healthcare) using standard amine coupling, and antibodies injected at various concentrations in 120 μl phosphate buffer saline with a flow rate of […]. Binding kinetics were analyzed on a Biacore 3000 apparatus (GE Healthcare) with a 300 seconds dissociation period. Reference signal and 0 nM antibody concentration signal were substracted and data fitted using a 1:1 (Langmuir) binding model.

Assay [7] shares this target. Description: ELISA, plate-bound recombinant human IL-15 (100 ng/well), HRP goat anti-human IgG, absorbance at 450 nm. How it is done: as §1
The plate was then blocked with 2% normal goat serum for 30 min at 37° C. and washed 6 times with PBS-Tween (0.05% Tween-20 in PBS, v/v). […] The reaction was stopped by the addition of 1M H₂SO₄ and read at 450 nm. Dose response curves of absorbance versus concentration were plotted and analyzed to determine half-maximal binding concentrations (BC₅₀) using the Graphpad Prism software. BC₅₀ values expressed as molarity were extrapolated from concentration in ng/ml using a 150 kDa molecular weight value for all antibodies.

Numbering of substitutions follows the chain as printed.

T3 sequence (P40933 other isoform, or with tags, fused parts or gaps): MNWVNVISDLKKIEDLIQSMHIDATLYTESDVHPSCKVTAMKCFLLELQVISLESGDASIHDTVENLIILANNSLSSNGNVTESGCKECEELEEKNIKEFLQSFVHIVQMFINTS
T2 sequence (P40933 49-162 limits assumed): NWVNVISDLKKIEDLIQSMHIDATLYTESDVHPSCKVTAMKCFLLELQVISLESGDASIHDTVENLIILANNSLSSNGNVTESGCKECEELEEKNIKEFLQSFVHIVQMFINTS
T1 sequence (P40933 49-162 limits assumed): as above
T4 sequence (P40221 49-162): as the sequence (P40933 49-162 limits assumed) above, with L52H, A57T, S58D, S73I, V80I counted along it

B1: hVH1:hVK2 (antibody, human IgG1, kappa, V domains shown)
VH: EVRLMASGGGLVQPGGSLRLSCAASEFTFSNYAMSWVRQAPGKGLEWVATISRGGDYTYYPDSVKGRFTISRDNSKNTLYLQMNSLRAEDTAVYYCARRVSMITGGWAMDYWGQGTLVTVSS
VL: EVVMTQSPATLSLSPGERATLSCRSSQSIVDITGNTYLEWYQQKPGQAPRLLIYKVFNRFSGIPARFSGSGSGTDFTLTISSLEPEDFAVYYCFQDSFVPYTFGQGTKLEIKR
notes: Human IgG1 (G1m3) / kappa (Km3)
Take B1: in assay [1], the binding result is listed as “binds”.

B2: cVH1:hVK2 (antibody, human IgG1, kappa, V domains shown)
VH: B1 VH with Q13K, R19K, A40T, G42E, G44R, S75A, N84S, A88S, V93L, L117S
VL: B1 VL
notes: as for B1
As to B2, in assay [1], the binding result is given as “binds”.

B3: 146B7 (comparative antibody 2) (antibody, V domains shown)
VH: EVQLVQSGAEVKKPGESLKISCKVSGYFFTTYWIGWVRQMPGKGLEYMGIIYPGDSDTRYSPSFQGQVTISADKSISTAYLQWSSLKASDTAMYYCARGGNWNCFDYWGQGTLVTVSS
VL: EIVLTQSPGTLSLSPGERATLSCRASQSVSSSYLAWYQQKPGQAPRLLIYGASRRATGIPDRFSGSGSGTDFTLTISRLEPEDFAVYYCQRYGSSHTFGQGTKLEIS
notes: Fully human antibody of the prior art (WO 03/017935), 'produced in the same expression system'; also called AMG 714; HuMaxIL-15
By EC50 is commonly meant the concentration needed to bring the measured effect to its halfway point. The Kd is the concentration at which binding is half-saturated. Usually koff stands for the first-order rate constant of dissociation. In general, kon refers to a measure of how fast the partners come together. A word on the EC50 (read off the curve): it is the concentration needed to bring the measured effect to its halfway point. Consider B3, for which, in assay [2], the “IC50 in Kit 225 cells (nM), Human IL-15” value came out at 3.7 nM and the “IC50 in M-07e cells (nM), Human IL-15” value is 3.2 nM. Besides, the “IC50 in M07e cells for IL-15 trans presentation” value in assay [3] turned out to be 0.63 nM. The EC50 in assay [4] is 8.41 nM. Also, in assay [5], the EC50 worked out at 0.733 nM. Further, in assay [6], the Kd was 0.0367 nM, the off-rate (koff) turned out to be 5.26e-05 s⁻¹ and the kon worked out at 1.44e+06 M⁻¹ s⁻¹. Also, the “EC50 (read off the curve)” value in assay [7] is approximately 0.8 µg/mL.
